Data set [1] has as its target T1, DaArgC (Denitrovibrio acetiphilus, UniProt D4H3H4).
T1 construct: gene argC; dimer
T1 sequence (D4H3H4 1-334): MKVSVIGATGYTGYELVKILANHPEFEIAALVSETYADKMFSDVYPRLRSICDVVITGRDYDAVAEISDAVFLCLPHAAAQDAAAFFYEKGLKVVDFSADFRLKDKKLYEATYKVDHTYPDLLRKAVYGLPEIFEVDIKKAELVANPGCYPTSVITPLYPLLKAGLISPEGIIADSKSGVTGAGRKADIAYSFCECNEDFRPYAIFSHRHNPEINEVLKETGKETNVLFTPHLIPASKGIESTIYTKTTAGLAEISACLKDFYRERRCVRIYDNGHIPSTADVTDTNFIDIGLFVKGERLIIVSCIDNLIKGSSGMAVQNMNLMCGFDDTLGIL
Briefly: Nash assay of formaldehyde, inhibition of formyl phosphate reductase activity; coupled to EcAckA. Type of data set: biochemical. Conditions: read-out: N-acetyl-γ-glutamate / IC50. From the text:
(§1) Nash assay of formaldehyde, inhibition of formyl phosphate reductase activity; coupled to EcAckA on DaArgC

Data set [2] concerns the target T2, DaArgC (Denitrovibrio acetiphilus, UniProt D4H3H4, G182V/L233I/S178V).
T2 construct: gene argC; dimer
Described as above. Type of data set: biochemical. The conditions noted are these: read-out: N-acetyl-γ-glutamate / IC50.
Source text: as §1

In another data set the target is T3, EcArgC (Escherichia coli, UniProt P11446).
T3 construct: gene argC
T3 sequence (P11446 1-334): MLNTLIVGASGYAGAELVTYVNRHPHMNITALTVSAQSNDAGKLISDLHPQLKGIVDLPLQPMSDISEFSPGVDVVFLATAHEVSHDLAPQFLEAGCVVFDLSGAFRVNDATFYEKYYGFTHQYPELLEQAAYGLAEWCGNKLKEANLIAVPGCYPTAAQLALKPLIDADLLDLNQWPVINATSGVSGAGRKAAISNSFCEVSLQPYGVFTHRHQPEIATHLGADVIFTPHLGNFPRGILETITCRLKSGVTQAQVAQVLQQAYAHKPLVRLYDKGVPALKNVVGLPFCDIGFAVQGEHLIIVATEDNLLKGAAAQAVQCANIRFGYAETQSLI
The data set is described as follows: Nash assay of formaldehyde; coupled to EcAckA. The conditions noted are these: formyl phosphate made in situ by 2 µM EcAckA from 50 mM ammonium formate and 5 mM ATP; 250 µM NAD(P)H, 1 mM CoA, 10 mM MgCl2, MOPS-KOH pH 7.0, 30 °C. Type of data set: biochemical.

The target of the next data set is T4, EcProA (Escherichia coli, UniProt P07004).
T4 construct: gene proA
T4 sequence (P07004 1-417): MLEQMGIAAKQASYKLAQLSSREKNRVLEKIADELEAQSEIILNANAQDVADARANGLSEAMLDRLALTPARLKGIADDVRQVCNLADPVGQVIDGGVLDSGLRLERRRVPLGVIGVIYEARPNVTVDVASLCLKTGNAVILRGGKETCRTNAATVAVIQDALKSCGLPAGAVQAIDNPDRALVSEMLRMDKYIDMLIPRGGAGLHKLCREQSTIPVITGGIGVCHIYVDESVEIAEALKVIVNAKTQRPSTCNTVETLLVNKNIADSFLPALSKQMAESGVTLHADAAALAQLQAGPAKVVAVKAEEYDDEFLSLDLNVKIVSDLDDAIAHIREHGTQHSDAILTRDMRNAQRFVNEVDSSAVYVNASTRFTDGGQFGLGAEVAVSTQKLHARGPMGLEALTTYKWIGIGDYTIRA
Briefly: Nash assay of formaldehyde; coupled to EcAckA. Conditions: formyl phosphate made in situ by 2 µM EcAckA from 50 mM ammonium formate and 5 mM ATP; 250 µM NAD(P)H, 1 mM CoA, 10 mM MgCl2, MOPS-KOH pH 7.0, 30 °C. Type of data set: biochemical.

In the next data set the target is T5, EcASD (Escherichia coli, UniProt P0A9Q9).
T5 construct: gene asd
T5 sequence (P0A9Q9 1-367): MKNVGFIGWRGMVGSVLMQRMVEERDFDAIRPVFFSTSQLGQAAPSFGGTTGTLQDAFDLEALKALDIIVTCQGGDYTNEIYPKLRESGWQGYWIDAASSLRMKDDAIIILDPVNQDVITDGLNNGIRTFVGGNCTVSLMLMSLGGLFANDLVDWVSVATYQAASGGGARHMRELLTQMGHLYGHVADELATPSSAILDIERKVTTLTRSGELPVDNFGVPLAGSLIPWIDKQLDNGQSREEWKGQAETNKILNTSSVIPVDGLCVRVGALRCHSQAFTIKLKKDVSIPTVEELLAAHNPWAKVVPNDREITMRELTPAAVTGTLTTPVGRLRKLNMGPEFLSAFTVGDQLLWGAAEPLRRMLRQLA
The data set is described as follows: Nash assay of formaldehyde; coupled to EcAckA. The conditions noted are these: formyl phosphate made in situ by 2 µM EcAckA from 50 mM ammonium formate and 5 mM ATP; 250 µM NAD(P)H, 1 mM CoA, 10 mM MgCl2, MOPS-KOH pH 7.0, 30 °C. Type of data set: biochemical.

For a further data set, the target named is T6, EcGapA (Escherichia coli, UniProt P0A9B2).
T6 construct: gene gapA
T6 sequence (P0A9B2 2-331): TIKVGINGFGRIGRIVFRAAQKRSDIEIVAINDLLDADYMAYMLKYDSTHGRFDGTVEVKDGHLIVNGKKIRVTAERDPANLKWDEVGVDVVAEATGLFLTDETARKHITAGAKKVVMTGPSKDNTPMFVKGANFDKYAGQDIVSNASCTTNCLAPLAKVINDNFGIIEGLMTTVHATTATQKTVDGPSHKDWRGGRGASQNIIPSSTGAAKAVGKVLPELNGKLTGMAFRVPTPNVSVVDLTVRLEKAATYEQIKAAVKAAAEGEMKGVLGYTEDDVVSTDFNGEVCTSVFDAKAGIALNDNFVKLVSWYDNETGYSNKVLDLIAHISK
The data set is described as follows: Nash assay of formaldehyde; coupled to EcAckA. Type of data set: biochemical. The conditions noted are these: formyl phosphate made in situ by 2 µM EcAckA from 50 mM ammonium formate and 5 mM ATP; 250 µM NAD(P)H, 1 mM CoA, 10 mM MgCl2, MOPS-KOH pH 7.0, 30 °C.

Substrate in data set [3]: NC(=O)C1=CN([C@@H]2O[C@H](COP(=O)(O)OP(=O)(O)OC[C@H]3O[C@@H](n4cnc5c(N)ncnc54)[C@H](OP(=O)(O)O)[C@@H]3O)[C@@H](O)[C@H]2O)C=CC1
The data set is described as follows: Nash assay of formaldehyde, fluorescence; coupled to EcAckA. Type of data set: biochemical, Denitrovibrio acetiphilus. The conditions noted are these: formyl phosphate made in situ by 10 µM EcAckA from 500 mM ammonium formate and 5 mM ATP, 10 mM MgCl2, MOPS-KOH pH 7.0, 30 °C, varied: cofactor. From the text: (§2) Nash assay of formaldehyde, fluorescence; coupled to EcAckA on DaArgC

Data set [4] deals with the molecule itself. The data set is described as follows: SEC; HiLoad 16/600 Superdex 200 pg in SEC buffer (75 mM KCl, 25 mM HEPES-KOH pH 7.8), loaded straight after Ni affinity purification, before crystallisation. For orientation: In gel filtration, larger molecules generally elute earlier.
Substrate in data set [5]: O=COP(=O)(O)O
Briefly: Nash assay of formaldehyde, initial slopes, synthetic formyl phosphate. Type of data set: biochemical, Denitrovibrio acetiphilus. Conditions: 1 mM NADPH, 10 mM MgCl2, MOPS pH 7.0, 30 °C, freshly synthesized crude formyl phosphate. An excerpt:
Nash assay of formaldehyde, initial slopes, synthetic formyl phosphate on […]

Substrate in data set [6]: NC(=O)C1=CN([C@@H]2O[C@H](COP(=O)(O)OP(=O)(O)OC[C@H]3O[C@@H](n4cnc5c(N)ncnc54)[C@H](O)[C@@H]3O)[C@@H](O)[C@H]2O)C=CC1
The data set is described as follows: Nash assay of formaldehyde, fluorescence; coupled to EcAckA. Type of data set: biochemical, Denitrovibrio acetiphilus. Conditions: formyl phosphate made in situ by 10 µM EcAckA from 250 mM ammonium formate and 5 mM ATP, 10 mM MgCl2, MOPS-KOH pH 7.0, 30 °C, varied: cofactor.
Source text: as §2

Residue numbers refer to the chain shown, from its start. Names and notes keep the numbering of the source.

T2 sequence (D4H3H4 entry or part of it S178V/G182V/L233I): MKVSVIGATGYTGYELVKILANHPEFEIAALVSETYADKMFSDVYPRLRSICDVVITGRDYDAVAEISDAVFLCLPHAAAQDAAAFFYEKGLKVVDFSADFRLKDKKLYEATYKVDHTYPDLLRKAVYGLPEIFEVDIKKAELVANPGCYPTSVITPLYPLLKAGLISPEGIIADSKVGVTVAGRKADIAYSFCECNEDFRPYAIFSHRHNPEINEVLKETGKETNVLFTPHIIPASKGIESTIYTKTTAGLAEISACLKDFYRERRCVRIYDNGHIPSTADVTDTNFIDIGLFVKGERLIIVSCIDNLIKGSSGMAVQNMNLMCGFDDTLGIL

As for `CC(=O)N[C@@H](CCC(=O)O)C(=O)O` [N-acetyl-γ-glutamate], the values for the IC50 on DaArgC [1] and at DaArgC [2] were 5.1 ± 1 mM and 24.6 ± 7.9 mM, respectively.

With `O=COP(=O)(O)O` [formyl phosphate], the “Nash assay of formaldehyde; coupled to EcAckA” value was “EcArgC and EcGapA performed best under the chosen conditions” at EcArgC; “(EcASD, EcArgC, EcGapA, EcProA), we detected FPR activity in all cases” on EcProA; “(EcASD, EcArgC, EcGapA, EcProA), we detected FPR activity in all cases” at EcASD; “EcArgC and EcGapA performed best under the chosen conditions” on EcGapA.

B1: Denitrovibrio acetiphilus N-acetyl-γ-glutamyl phosphate reductase (DaArgC), wild type (enzyme)
chain: T1 sequence (D4H3H4 1-334)
notes: N-acetyl-γ-glutamyl phosphate reductase (ArgC) of Denitrovibrio acetiphilus; also called WT DaArgC; Denitrovibrio acetiphilus N-acetyl-γ-glutamyl phosphate dehydrogenase; source: E. coli BL21 (DE3), purified (Ni-Sepharose HisTrap FF, Superdex 200 SEC)
The Km is the substrate concentration at which the rate is half of its maximum. The kcat is the maximal rate divided by the concentration of active sites. A word on the kcat/Km: it is the turnover number divided by the Michaelis constant. As to B1, in data set [3], the Km came to 160 ± 20 µM, the kcat stood at 0.66 ± 0.03 s⁻¹ and the specificity constant (kcat/Km) was determined as 4100 M⁻¹ s⁻¹. Besides, the binding result in data set [4] is “binds”.

B2: DaArgC (Denitrovibrio acetiphilus DSM 12809; G182V/S178V) (protein)
chain: T1 sequence (D4H3H4 1-334) with S178V, G182V
notes: dimer
In the case of B2, in data set [5], the Km stood at 38000 ± 9000 µM, the kcat amounted to 0.17 ± 0.02 s⁻¹ and the catalytic efficiency (kcat/Km) amounted to 3.1 M⁻¹ s⁻¹. In data set [6], the Km came to 300 ± 40 µM, the kcat was 0.12 ± 0.00 s⁻¹ and the specificity constant (kcat/Km) is 400 M⁻¹ s⁻¹. Besides, in data set [3], the Km turned out to be 60 ± 20 µM, the kcat was 0.26 ± 0.03 s⁻¹ and the catalytic efficiency (kcat/Km) amounted to 4300 M⁻¹ s⁻¹.

B3: DaArgC (Denitrovibrio acetiphilus DSM 12809; G182V) (protein)
chain: T1 sequence (D4H3H4 1-334) with G182V
notes: dimer
Regarding B3, in [5], the Michaelis constant (Km) was found to be 31000 ± 7000 µM, the catalytic constant (kcat) was found to be 0.11 ± 0.01 s⁻¹ and the kcat/Km was found to be 2.4 M⁻¹ s⁻¹. Besides, in data set [6], the Michaelis-Menten constant (Km) was 280 ± 50 µM, the kcat was 0.08 ± 0.00 s⁻¹ and the kcat/Km was 280 M⁻¹ s⁻¹. Moreover, in [3], the Km amounted to 40 ± 10 µM, the kcat turned out to be 0.14 ± 0.02 s⁻¹ and the catalytic efficiency (kcat/Km) was 3500 M⁻¹ s⁻¹.

B4: DaArgC3, triple substitution variant (G182V, S178V, L233I) of Denitrovibrio acetiphilus N-acetyl-γ-glutamyl phosphate reductase (enzyme)
chain: T1 sequence (D4H3H4 1-334) with S178V, G182V, L233I
notes: N-acetyl-γ-glutamyl phosphate reductase (ArgC) of Denitrovibrio acetiphilus with G182V, S178V and L233I; Found by iterative saturation mutagenesis of DaArgC; also called formyl phosphate reductase variant; source: E. coli BL21 (DE3), purified (Ni-Sepharose HisTrap FF, Superdex 200 SEC)
Take B4: the binding result in [4] was “binds”.

B5: DaArgC (Denitrovibrio acetiphilus DSM 12809; G182V/L233I/S178V) (protein)
chain: T1 sequence (D4H3H4 1-334) with S178V, G182V, L233I
notes: dimer
On to B5, for which, in [5], the Michaelis-Menten constant (Km) worked out at 18000 ± 7000 µM, the kcat came out at 0.12 ± 0.02 s⁻¹ and the kcat/Km came out at 4.6 M⁻¹ s⁻¹. For the same molecule, in data set [6], the Km amounted to 340 ± 50 µM, the kcat stood at 0.09 ± 0.00 s⁻¹ and the kcat/Km was 260 M⁻¹ s⁻¹. Moreover, in data set [3], the Km worked out at 50 ± 10 µM, the turnover number (kcat) worked out at 0.23 ± 0.02 s⁻¹ and the catalytic efficiency (kcat/Km) is 4600 M⁻¹ s⁻¹.
